This passage reports Kd results from publication PMC9788986, “Dynamic chromatin accessibility deploys heterotypic cis/trans-acting factors driving stomatal cell-fate commitment” (Nature Plants, 2022).

Assay [1] has as its target T1, MUTE-SCRM heterodimer (A. thaliana, UniProt Q9M8K6 1-202; Q9LSE2 1-494).
T1 construct: MUTE, Arabidopsis thaliana, residues 1-202, in pET28a; also called SCRM-MUTE heterodimer; source: E. coli BL21, purified (MUTE: Ni-NTA, gel filtration; SCRM: glutathione resin, thrombin, gel filtration); not shown: GST, N-terminal, cleaved
T1 sequence (looked up) 1: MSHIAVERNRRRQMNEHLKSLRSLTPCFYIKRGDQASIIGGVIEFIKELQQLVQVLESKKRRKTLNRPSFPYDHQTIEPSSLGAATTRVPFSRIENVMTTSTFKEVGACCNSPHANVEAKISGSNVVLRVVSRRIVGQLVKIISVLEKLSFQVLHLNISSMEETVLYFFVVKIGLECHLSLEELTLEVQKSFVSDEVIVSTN
T1 sequence (looked up) 2: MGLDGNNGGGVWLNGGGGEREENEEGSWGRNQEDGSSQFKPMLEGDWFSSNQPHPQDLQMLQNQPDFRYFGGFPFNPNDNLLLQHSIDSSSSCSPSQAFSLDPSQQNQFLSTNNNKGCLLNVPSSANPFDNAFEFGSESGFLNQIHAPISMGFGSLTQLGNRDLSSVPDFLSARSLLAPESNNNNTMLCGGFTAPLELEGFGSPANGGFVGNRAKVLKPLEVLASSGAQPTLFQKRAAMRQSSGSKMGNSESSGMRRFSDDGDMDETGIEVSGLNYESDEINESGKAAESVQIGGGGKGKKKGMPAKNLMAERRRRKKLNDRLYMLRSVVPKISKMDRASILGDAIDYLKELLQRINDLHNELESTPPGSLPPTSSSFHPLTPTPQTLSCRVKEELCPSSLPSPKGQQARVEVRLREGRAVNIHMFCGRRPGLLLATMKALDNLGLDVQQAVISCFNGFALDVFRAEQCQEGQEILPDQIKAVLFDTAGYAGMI
The assay can be described thus: BLI; Octet Red96; Ni-NTA probes loaded with 500 nM His tagged BPC1 or BPC2; heterodimer as analyte at seven concentrations (200 to 3.12 nM by the methods); 30 °C; 1× PBS with 0.02% Tween 20; 1:1 model, Kd by steady-state analysis. Particulars: both partners purified.

In assay [2] the target is T2, His tagged BPC1 (1-283) (A. thaliana, UniProt Q9SKD0 1-283).
T2 chain: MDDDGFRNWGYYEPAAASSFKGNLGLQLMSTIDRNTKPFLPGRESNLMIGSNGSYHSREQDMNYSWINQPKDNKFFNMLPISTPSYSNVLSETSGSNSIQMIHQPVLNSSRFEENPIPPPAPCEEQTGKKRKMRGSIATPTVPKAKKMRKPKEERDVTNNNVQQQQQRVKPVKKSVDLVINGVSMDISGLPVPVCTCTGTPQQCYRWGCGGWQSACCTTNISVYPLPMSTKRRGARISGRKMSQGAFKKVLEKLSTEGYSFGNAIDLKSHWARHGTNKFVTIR
The assay can be described thus: BLI. A general note: In BLI a coated tip is dipped into the sample, and binding shifts an interference pattern.

Assay [3] concerns the target T3, His tagged BPC2 (1-279) (A. thaliana, UniProt Q9LDE2 1-279).
T3 chain: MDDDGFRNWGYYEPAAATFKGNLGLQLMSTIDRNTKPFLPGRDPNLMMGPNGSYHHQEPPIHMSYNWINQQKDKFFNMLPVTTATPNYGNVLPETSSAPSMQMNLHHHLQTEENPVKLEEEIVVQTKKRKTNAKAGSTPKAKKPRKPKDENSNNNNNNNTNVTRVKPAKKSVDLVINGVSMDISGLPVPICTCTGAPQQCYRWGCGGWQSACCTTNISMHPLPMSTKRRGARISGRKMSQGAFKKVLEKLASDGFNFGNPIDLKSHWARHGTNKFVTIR
Kind of assay: BLI.

B1: His tagged BPC2 (1-279) (natural protein, A. thaliana, UniProt Q9LDE2 1-279, looked up)
chain: MDDDGFRNWGYYEPAAATFKGNLGLQLMSTIDRNTKPFLPGRDPNLMMGPNGSYHHQEPPIHMSYNWINQQKDKFFNMLPVTTATPNYGNVLPETSSAPSMQMNLHHHLQTEENPVKLEEEIVVQTKKRKTNAKAGSTPKAKKPRKPKDENSNNNNNNNTNVTRVKPAKKSVDLVINGVSMDISGLPVPICTCTGAPQQCYRWGCGGWQSACCTTNISMHPLPMSTKRRGARISGRKMSQGAFKKVLEKLASDGFNFGNPIDLKSHWARHGTNKFVTIR
notes: BPC2 (BASIC … 2), Arabidopsis thaliana, residues 1-279, in pET28a; source: E. coli BL21, purified (Ni-NTA, gel filtration on Superdex-200); not shown: His tag, N-terminal, kept
The term Kd denotes the equilibrium constant for the complex coming apart. A higher Kd goes with weaker binding. In assay [1], B1 yielded a Kd of 11 ± 1.6 nM.

B2: His tagged BPC1 (1-283) (natural protein, A. thaliana, UniProt Q9SKD0 1-283, looked up)
chain: MDDDGFRNWGYYEPAAASSFKGNLGLQLMSTIDRNTKPFLPGRESNLMIGSNGSYHSREQDMNYSWINQPKDNKFFNMLPISTPSYSNVLSETSGSNSIQMIHQPVLNSSRFEENPIPPPAPCEEQTGKKRKMRGSIATPTVPKAKKMRKPKEERDVTNNNVQQQQQRVKPVKKSVDLVINGVSMDISGLPVPVCTCTGTPQQCYRWGCGGWQSACCTTNISVYPLPMSTKRRGARISGRKMSQGAFKKVLEKLSTEGYSFGNAIDLKSHWARHGTNKFVTIR
notes: BPC1 (BASIC … 1), Arabidopsis thaliana, residues 1-283, in pET28a; source: E. coli BL21, purified (Ni-NTA, gel filtration on Superdex-200); not shown: His tag, N-terminal, kept
As to B2, the Kd in assay [1] is 4.8 ± 1.6 nM.

B3: SPCH-SCRM heterodimer (complex)
chain 1: MQEIIPDFLEECEFVDTSLAGDDLFAILESLEGAGEISPTAASTPKDGTTSSKELVKDQDYENSSPKRKKQRLETRKEEDEEEEDGDGEAEEDNKQDGQQKMSHVTVERNRRKQMNEHLTVLRSLMPCFYVKRGDQASIIGGVVEYISELQQVLQSLEAKKQRKTYAEVLSPRVVPSPRPSPPVLSPRKPPLSPRINHHQIHHHLLLPPISPRTPQPTSPYRAIPPQLPLIPQPPLRSYSSLASCSSLGDPPPYSPASSSSSPSVSSNHESSVINELVANSKSALADVEVKFSGANVLLKTVSHKIPGQVMKIIAALEDLALEILQVNINTVDETMLNSFTIKIGIECQLSAEELAQQIQQTFC
chain 2: MGLDGNNGGGVWLNGGGGEREENEEGSWGRNQEDGSSQFKPMLEGDWFSSNQPHPQDLQMLQNQPDFRYFGGFPFNPNDNLLLQHSIDSSSSCSPSQAFSLDPSQQNQFLSTNNNKGCLLNVPSSANPFDNAFEFGSESGFLNQIHAPISMGFGSLTQLGNRDLSSVPDFLSARSLLAPESNNNNTMLCGGFTAPLELEGFGSPANGGFVGNRAKVLKPLEVLASSGAQPTLFQKRAAMRQSSGSKMGNSESSGMRRFSDDGDMDETGIEVSGLNYESDEINESGKAAESVQIGGGGKGKKKGMPAKNLMAERRRRKKLNDRLYMLRSVVPKISKMDRASILGDAIDYLKELLQRINDLHNELESTPPGSLPPTSSSFHPLTPTPQTLSCRVKEELCPSSLPSPKGQQARVEVRLREGRAVNIHMFCGRRPGLLLATMKALDNLGLDVQQAVISCFNGFALDVFRAEQCQEGQEILPDQIKAVLFDTAGYAGMI
For B3, the results for the Kd in assay [2] and in assay [3] were 126 nM and 227 nM, respectively.
